This is an account of results in patent US20210009703A1 (TUSK THERAPEUTICS, published 2021).

As a reminder, the EC50 (read off the curve) is the concentration giving half of the maximal effect. Higher therefore signals a less potent agent.

The target of experiment [1] is T1, human CD25 expressed on cells (human, UniProt P01589 22-272).
T1 construct: Endogenous CD25 on human cells; also called CD25 on human in vitro differentiated Treg cells, SU-DHL-1 cells, SR-786 cells and PBMC
T1 sequence: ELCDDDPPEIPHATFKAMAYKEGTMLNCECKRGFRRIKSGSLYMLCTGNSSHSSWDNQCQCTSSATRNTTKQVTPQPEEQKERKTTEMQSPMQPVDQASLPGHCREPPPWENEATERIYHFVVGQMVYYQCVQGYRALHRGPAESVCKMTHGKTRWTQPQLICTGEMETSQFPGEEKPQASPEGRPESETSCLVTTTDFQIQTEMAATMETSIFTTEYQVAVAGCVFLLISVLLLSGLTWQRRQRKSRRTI
The experiment in a line: flow cytometry on SU-DHL-1 cells, PE anti-human IgG Fc secondary. (In general: A flow cytometer gives signals particle by particle.)
Protocol: Cells were washed again and resuspended in FACS buffer containing DAPI and acquired on the Intellicyt iQue. Live cells were gated using FSC vs SSC parameters by flow cytometry during sample acquisition. Geo Mean Intensity of stained cells were plotted on an XY chart, graphing Geo Mean Intensity against the log of the concentration, and the data fit to a non-linear regression curve from which the EC50 is calculated.

Experiment [2] has as its target T2, recombinant human CD25 his tagged (human, UniProt P01589 22-240).
T2 construct: also called rhCD25-his; rhCD25; not shown: His tag
T2 sequence: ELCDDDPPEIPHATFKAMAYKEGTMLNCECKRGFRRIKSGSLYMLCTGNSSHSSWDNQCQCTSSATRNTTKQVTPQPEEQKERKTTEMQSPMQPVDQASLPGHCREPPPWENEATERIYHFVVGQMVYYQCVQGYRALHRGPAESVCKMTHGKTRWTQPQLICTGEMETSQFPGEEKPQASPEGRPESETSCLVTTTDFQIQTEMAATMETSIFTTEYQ
The experiment in a line: ForteBio BLI, avidity format: rhCD25-His on Ni-NTA sensors, IgG in solution; IgG in solution, avidity format. For orientation: In BLI a coated tip is dipped into the sample, and binding shifts an interference pattern.

B1: aCD25-a-672 (antibody, V domains shown)
VH: QVQLVQSGAEVKKPGSSVKVSCKASGGTFSSYAISWVRQAPGQGLEWMGGIIPIFGTANYAQKFQGRVTITADESTSTAYMELSSLRSEDTAVYYCAREYDYKEDWGQGTLVTVSS
VL: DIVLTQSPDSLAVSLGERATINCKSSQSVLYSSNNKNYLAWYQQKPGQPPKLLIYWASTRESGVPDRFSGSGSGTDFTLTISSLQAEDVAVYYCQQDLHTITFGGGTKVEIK
notes: An afucosylated IgG1 form was also made
On to B1, for which, in experiment [1], the “EC50 (read off the curve)” value is ~0.2 µg/mL. Also, in experiment [2], the Kd came to 1.2 nM.
